Data reported in article PMC11836289, “A humanized NOVA1 splicing factor alters mouse vocal communications”.

What was measured:
NOVA1hu (humanized) = target: T1, NOVA1hu (humanized) (UniProt Q9JKN6 1-507, I197V); experiment: EMSA; text prints 105.83 ± 8.3; figure and source data 105.3; 10 mM HEPES (pH not stated), 3 mM MgCl2, 150 mM NaCl, 5% glycerol, 0.1 mM DTT, 0.1 U/ul RNase OUT, 10 mg/ml yeast tRNA, 1 mg/ml poly dI-dC, 22 C, 60 min; protein 0.5-2 pmol, RNA 0.08 pmol per reaction; 8% native gel; conditions: protein: recombinant; tags: GST tag (N-term) cleaved by PreScission; pGEX6p1 remnant; label: 32P; hairpin
T1 sequence: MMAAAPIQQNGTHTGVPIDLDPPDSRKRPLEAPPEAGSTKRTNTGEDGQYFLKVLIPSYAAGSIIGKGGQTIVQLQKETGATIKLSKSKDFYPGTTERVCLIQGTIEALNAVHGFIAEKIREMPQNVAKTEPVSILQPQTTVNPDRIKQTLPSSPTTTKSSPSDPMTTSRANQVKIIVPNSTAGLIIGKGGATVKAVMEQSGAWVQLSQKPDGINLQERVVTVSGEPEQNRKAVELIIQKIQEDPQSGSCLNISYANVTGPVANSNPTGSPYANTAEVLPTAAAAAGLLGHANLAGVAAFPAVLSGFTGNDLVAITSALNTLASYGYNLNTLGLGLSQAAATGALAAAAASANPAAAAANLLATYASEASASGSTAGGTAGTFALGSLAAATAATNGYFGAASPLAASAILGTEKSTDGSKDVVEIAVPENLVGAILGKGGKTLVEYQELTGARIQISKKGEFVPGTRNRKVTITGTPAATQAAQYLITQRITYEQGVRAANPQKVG

NOVA1wt = target: T2, NOVA1wt (UniProt Q9JKN6 1-507); experiment: EMSA; 10 mM HEPES (pH not stated), 3 mM MgCl2, 150 mM NaCl, 5% glycerol, 0.1 mM DTT, 0.1 U/ul RNase OUT, 10 mg/ml yeast tRNA, 1 mg/ml poly dI-dC, 22 C, 60 min; protein 0.5-2 pmol, RNA 0.08 pmol per reaction; 8% native gel; conditions: protein: recombinant; tags: GST tag (N-term) cleaved by PreScission; pGEX6p1 remnant; label: 32P; hairpin
T2 sequence: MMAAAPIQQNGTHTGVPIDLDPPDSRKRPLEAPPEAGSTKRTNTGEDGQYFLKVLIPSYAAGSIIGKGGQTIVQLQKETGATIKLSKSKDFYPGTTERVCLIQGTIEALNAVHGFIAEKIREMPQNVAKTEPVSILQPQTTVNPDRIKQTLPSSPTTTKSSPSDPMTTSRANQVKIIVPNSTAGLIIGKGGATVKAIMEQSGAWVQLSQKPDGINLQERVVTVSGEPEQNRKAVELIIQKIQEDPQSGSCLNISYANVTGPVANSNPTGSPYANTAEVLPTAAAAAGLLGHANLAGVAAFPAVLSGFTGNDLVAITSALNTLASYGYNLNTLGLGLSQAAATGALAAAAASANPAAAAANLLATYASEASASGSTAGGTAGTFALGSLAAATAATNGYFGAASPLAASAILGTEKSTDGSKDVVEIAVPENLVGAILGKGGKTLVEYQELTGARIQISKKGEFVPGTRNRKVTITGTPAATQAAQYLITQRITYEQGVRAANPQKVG

B1: UCAU RNA probe (stem-loop) (structured_RNA)
RNA: CCUUAUCAUGCUGACUCACGUCAUUUCAUCUCAUCAAGGGAGUCAGUGGGAUA
**Q.** B1 was tested. Which Kd (NOVA1hu (humanized)) did it give?
**A.** 105 ± 8.3 nM

**Q.** What about the Kd (NOVA1wt) of the same binder?
**A.** 105 ± 11.6 nM
